T1: human IL-2 receptor (IL-2Rα/IL-2Rβ/γc) (human, UniProt P01589 22-272; P14784 27-551; P31785 23-369)
T1 sequence 1: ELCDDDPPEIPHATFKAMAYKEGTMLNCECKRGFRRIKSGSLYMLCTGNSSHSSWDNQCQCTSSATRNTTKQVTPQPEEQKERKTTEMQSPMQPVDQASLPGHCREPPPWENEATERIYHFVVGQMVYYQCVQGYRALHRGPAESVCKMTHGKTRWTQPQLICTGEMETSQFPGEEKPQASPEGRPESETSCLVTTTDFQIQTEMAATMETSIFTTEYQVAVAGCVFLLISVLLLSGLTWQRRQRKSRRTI
T1 sequence 2: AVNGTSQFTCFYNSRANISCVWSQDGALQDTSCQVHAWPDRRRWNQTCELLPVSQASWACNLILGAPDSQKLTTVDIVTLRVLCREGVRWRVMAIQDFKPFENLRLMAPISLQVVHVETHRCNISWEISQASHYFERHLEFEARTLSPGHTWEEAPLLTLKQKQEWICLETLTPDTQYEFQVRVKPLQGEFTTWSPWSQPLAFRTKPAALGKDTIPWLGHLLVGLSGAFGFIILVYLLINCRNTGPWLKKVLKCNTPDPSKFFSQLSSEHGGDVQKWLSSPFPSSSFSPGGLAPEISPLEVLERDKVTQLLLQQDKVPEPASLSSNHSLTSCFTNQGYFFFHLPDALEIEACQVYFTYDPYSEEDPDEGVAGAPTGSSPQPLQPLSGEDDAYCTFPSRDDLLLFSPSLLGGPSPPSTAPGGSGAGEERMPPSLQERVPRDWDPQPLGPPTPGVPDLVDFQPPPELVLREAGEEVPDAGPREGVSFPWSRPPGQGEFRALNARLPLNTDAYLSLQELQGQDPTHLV
T1 sequence 3: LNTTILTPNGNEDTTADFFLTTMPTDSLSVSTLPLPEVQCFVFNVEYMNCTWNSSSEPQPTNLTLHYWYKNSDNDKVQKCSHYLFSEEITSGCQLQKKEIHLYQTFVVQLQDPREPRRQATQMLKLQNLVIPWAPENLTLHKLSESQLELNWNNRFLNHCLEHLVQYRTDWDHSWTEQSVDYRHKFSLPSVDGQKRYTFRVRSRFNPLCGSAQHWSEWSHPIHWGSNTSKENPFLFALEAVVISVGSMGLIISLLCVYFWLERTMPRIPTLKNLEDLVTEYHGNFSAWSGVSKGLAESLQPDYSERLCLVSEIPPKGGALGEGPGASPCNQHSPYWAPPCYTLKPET

B1: DC00087 (other)
chain 1: EVQLVESGGGLVQAGGSLRLSCAASGGSIYTYNMGWFRQAPGKEREFVAGTLWSGGDSVYADFAKGRFTLSRENAKNTLYLQMNSLKPEDTATYYCAIDPLSLTSDWRVDELSSWGKGTLVTVSSDKTHTCPPCPAPEAAGGPSVFLFPPKPKDTLMISRTPEVTCVVVDVSHEDPEVKFNWYVDGVEVHNAKTKPREEQYNSTYRVVSVLTVLHQDWLNGKEYKCKVSNKALGAPIEKTISKAKGQPREPQVYTLPPSRDELTKNQVSLTCLVKGFYPSDIAVEWESNGQPENNYKTTPPVLDSDGSFLLYSKLTVDKSRWQQGNVFSCSVMHEALHNHYTQKSLSLSPGK
chain 2: QVQLVESGGGLVQPGGSLRLSCATSGFTFRNNFMSWVRQAPGKGLEWVSTISYGGESTTYAESVKGRFTISRDNAKNTLYLQMNNLKPEDTAVYYCAKATSYDSIRSGSRGQGTQVTVSSGGGGSGGGGSGGGGSEVQLVESGGGLVQTGGSLRLSCAASGGTFSRDAMAWFRQVPGKEREFVALISWSGATTNYADSVKGRFAISRDNGKNTVYLQMNRLKPADTAIYYCAADRRPMGSRSYFEPTEYDDWGQGTQVTVSSGGGGSGGGGSGGGGSQVQLVESGGGLVQAGGSLTLSCAAPGRTFGTDVVGWFRQAPGKEREFVASISRSGDGIYYDDSVKGRFTISRNNAWNTVNLQMNSLKVEDTAVYYCAAGDGWSTYDYWGQGTQVTVSSGGGGSGGGGSGGGGSDKTHTCPPCPAPEAAGGPSVFLFPPKPKDTLMISRTPEVTCVVVDVSHEDPEVKFNWYVDGVEVHNAKTKPREEQYNSTYRVVSVLTVLHQDWLNGKEYKCKVSNKALGAPIEKTISKAKGQPREPQVYTLPPSRDELTKNQVSLTCLVKGFYPSDIAVEWESNGQPENNYKTTPPVLDSDGSFFLYSRLTVDKSRWQQGNVFSCSVMHEALHNHYTQKSLSLSPGK
B2: DC00090 (other)
chain 1: QLQLVESGGGLVQAGDSLRLSCAASGFNFGWHAMGWFRQAPGKEREFVATITWTGRDTYYADSVRGRFTISKDNAKDTLFLQMNSLRPDDTGVYYCAKARERATWAYSEDDCDYWGQGTQVTVSSDKTHTCPPCPAPEAAGGPSVFLFPPKPKDTLMISRTPEVTCVVVDVSHEDPEVKFNWYVDGVEVHNAKTKPREEQYNSTYRVVSVLTVLHQDWLNGKEYKCKVSNKALGAPIEKTISKAKGQPREPQVYTLPPSRDELTKNQVSLTCLVKGFYPSDIAVEWESNGQPENNYKTTPPVLDSDGSFLLYSKLTVDKSRWQQGNVFSCSVMHEALHNHYTQKSLSLSPGK
chain 2: EVQLVESGGGLVQTGGSLRLSCAASGGTFSRDAMAWFRQVPGKEREFVALISWSGATTNYADSVKGRFAISRDNGKNTVYLQMNRLKPADTAIYYCAADRRPMGSRSYFEPTEYDDWGQGTQVTVSSGGGGSGGGGSGGGGSQVQLVESGGGLVQPGGSLRLSCATSGFTFRNNFMSWVRQAPGKGLEWVSTISYGGESTTYAESVKGRFTISRDNAKNTLYLQMNNLKPEDTAVYYCAKATSYDSIRSGSRGQGTQVTVSSGGGGSGGGGSGGGGSQVQLVESGGGLVQAGGSLTLSCAAPGRTFGTDVVGWFRQAPGKEREFVASISRSGDGIYYDDSVKGRFTISRNNAWNTVNLQMNSLKVEDTAVYYCAAGDGWSTYDYWGQGTQVTVSSGGGGSGGGGSGGGGSDKTHTCPPCPAPEAAGGPSVFLFPPKPKDTLMISRTPEVTCVVVDVSHEDPEVKFNWYVDGVEVHNAKTKPREEQYNSTYRVVSVLTVLHQDWLNGKEYKCKVSNKALGAPIEKTISKAKGQPREPQVYTLPPSRDELTKNQVSLTCLVKGFYPSDIAVEWESNGQPENNYKTTPPVLDSDGSFFLYSRLTVDKSRWQQGNVFSCSVMHEALHNHYTQKSLSLSPGK
B3: DC00091 (other)
chain 1: B2 chain 1
chain 2: QVQLVESGGGLVQPGGSLRLSCATSGFTFRNNFMSWVRQAPGKGLEWVSTISYGGESTTYAESVKGRFTISRDNAKNTLYLQMNNLKPEDTAVYYCAKATSYDSIRSGSRGQGTQVTVSSGGGGSGGGGSGGGGSQVQLVESGGGLVQAGGSLTLSCAAPGRTFGTDVVGWFRQAPGKEREFVASISRSGDGIYYDDSVKGRFTISRNNAWNTVNLQMNSLKVEDTAVYYCAAGDGWSTYDYWGQGTQVTVSSGGGGSGGGGSGGGGSEVQLVESGGGLVQTGGSLRLSCAASGGTFSRDAMAWFRQVPGKEREFVALISWSGATTNYADSVKGRFAISRDNGKNTVYLQMNRLKPADTAIYYCAADRRPMGSRSYFEPTEYDDWGQGTQVTVSSGGGGSGGGGSGGGGSDKTHTCPPCPAPEAAGGPSVFLFPPKPKDTLMISRTPEVTCVVVDVSHEDPEVKFNWYVDGVEVHNAKTKPREEQYNSTYRVVSVLTVLHQDWLNGKEYKCKVSNKALGAPIEKTISKAKGQPREPQVYTLPPSRDELTKNQVSLTCLVKGFYPSDIAVEWESNGQPENNYKTTPPVLDSDGSFFLYSRLTVDKSRWQQGNVFSCSVMHEALHNHYTQKSLSLSPGK
B4: DC00092 (other)
chain 1: B2 chain 1
chain 2: B1 chain 2
B5: DC00093 (other)
chain 1: B2 chain 1
chain 2: QVQLVESGGGLVQAGGSLTLSCAAPGRTFGTDVVGWFRQAPGKEREFVASISRSGDGIYYDDSVKGRFTISRNNAWNTVNLQMNSLKVEDTAVYYCAAGDGWSTYDYWGQGTQVTVSSGGGGSGGGGSGGGGSEVQLVESGGGLVQTGGSLRLSCAASGGTFSRDAMAWFRQVPGKEREFVALISWSGATTNYADSVKGRFAISRDNGKNTVYLQMNRLKPADTAIYYCAADRRPMGSRSYFEPTEYDDWGQGTQVTVSSGGGGSGGGGSGGGGSQVQLVESGGGLVQPGGSLRLSCATSGFTFRNNFMSWVRQAPGKGLEWVSTISYGGESTTYAESVKGRFTISRDNAKNTLYLQMNNLKPEDTAVYYCAKATSYDSIRSGSRGQGTQVTVSSDKTHTCPPCPAPEAAGGPSVFLFPPKPKDTLMISRTPEVTCVVVDVSHEDPEVKFNWYVDGVEVHNAKTKPREEQYNSTYRVVSVLTVLHQDWLNGKEYKCKVSNKALGAPIEKTISKAKGQPREPQVYTLPPSRDELTKNQVSLTCLVKGFYPSDIAVEWESNGQPENNYKTTPPVLDSDGSFFLYSRLTVDKSRWQQGNVFSCSVMHEALHNHYTQKSLSLSPGK

target: T1, human IL-2 receptor (IL-2Rα/IL-2Rβ/γc); assay: cell-based or functional assay

First: B1
Second: B2
The “EC50 (nM) pSTAT5, NK, human PBMCs” value of the first is lower: 0.00972 nM for the first, 0.572 nM for the second.

Going from B3 to B5, the “EC50 (nM) pSTAT5, NK, human PBMCs” value falls from 0.307 nM to 0.0752 nM.

First: B1
Second: B2
The “Fold Max signal (% pSTAT5+) Treg/NK” value of the first is lower: 3 fold for the first, 9 fold for the second.

First: B3
Second: B4
The “Fold Max signal (% pSTAT5+) Treg/NK” value of the first is lower: 5 fold for the first, 6 fold for the second.

For B5, the “Fold Max signal (% pSTAT5+) Treg/NK” value was 6 fold.

First: B1
Second: B2
The “Max signal (% pSTAT5+), NK” value of the first is lower: 1.4 % pSTAT5+ for the first, 2.67 % pSTAT5+ for the second.

Compared with B3, B4 is lower in “Max signal (% pSTAT5+), NK” value: 14.5 % pSTAT5+ for the first, 4.82 % pSTAT5+ for the second.

With B5 the “Max signal (% pSTAT5+), NK” value was 11.4 % pSTAT5+.

Going from B1 to B2, the “Max signal (% pSTAT5+), Treg” value rises from 4.37 % pSTAT5+ to 23.5 % pSTAT5+.

First: B3
Second: B4
The “Max signal (% pSTAT5+), Treg” value of the first is higher: 67.7 % pSTAT5+ for the first, 26.7 % pSTAT5+ for the second.

In the case of B5, the “Max signal (% pSTAT5+), Treg” value is reported as 66.7 % pSTAT5+.

B2 and B3 cannot be ordered by “EC50 (nM) pSTAT5, Treg, human PBMCs” value: less than 0.1 pM for the first, less than 0.1 pM for the second.

Going from B4 to B5, the “EC50 (nM) pSTAT5, Treg, human PBMCs” value rises from less than 0.1 pM to 0.735 nM.

B2 and B3 cannot be ordered by “fold EC50 NK/Treg” value: greater than 5720 fold for the first, greater than 3070 fold for the second.
